Measured values published in US20200239579A1 (Genmab, published 2020).

Experiments:
[1] = biological target: T1, human PD-L1 (full length, on cells) (human, UniProt Q9NZQ7 19-290); assay: flow cytometry on SK-MES-1 cells, PE anti-human IgG secondary, MFI (PE)
T1 construct: The entry holds the signal peptide; also called CD274; B7H1
Protocol: (§1) Cells (3-5×10⁴ cells/well) were incubated in polystyrene 96-well round-bottom plates (Greiner bio-one, cat. no. 650101) with serial dilutions of antibodies (range 0.0001 to 10 μg/mL in 5-fold dilution steps) in 50 μL PBS/0.1% BSA/0.02% azide (staining buffer) at 4° C. for 30 min.
(§2) After washing twice in staining buffer, cells were incubated in 50 μL secondary antibody at 4° C. for 30 min. As a secondary antibody, R-Phycoerythrin (PE)-conjugated goat-anti-human IgG F(ab′)₂ (Cat. no. 109-116-098, Jackson ImmunoResearch Laboratories, Inc., West Grove, Pa.) diluted 1:500 in staining buffer, was used for all experiments. Next, cells were washed twice in staining buffer, re-suspended in 20 μL staining buffer and analyzed on an iQue screener (Intellicyt Corporation, USA). Binding curves were analyzed using non-linear regression (sigmoidal dose-response with variable slope) using GraphPad Prism V75.04 software (GraphPad Software, San Diego, Calif., USA).

[2] = biological target: T2, PDLoneECDHisCtag (human, UniProt Q9NZQ7 19-238); assay: BLI cross-block, second antibody on PDLoneECDHisCtag held by immobilised 321; bold = blocking
T2 construct: Expressed in HEK-293F cells; theoretical molecular weight 29 kDa; also called recombinant human PD-L1 ECD; human PD-L1 (BLI); not shown: C-terminal His-tag; C-tag
Protocol: (§3) Antibody cross-block testing was performed using biolayer interferometry (BLI) on an Octet HTX instrument (ForteBio). Antibodies (20 μg/ml in 10 mM sodium acetate buffer pH 6.0 (ForteBio)) were immobilized on Amine-Reactive 2nd Generation (AR2G) biosensors (ForteBio) according to the instructions of the manufacturer. After a baseline (50 s) in Sample Diluent (ForteBio), biosensors containing immobilized antibodies were loaded for 500 s with PDLoneECDHisCtag (100 nM or 2.7 μg/ml), after which the association response of a second antibody (10 μg/ml) was followed for 500 s. Biosensors were regenerated by using 3 times 5 s alternating exposures to 10 mM glycine pH 2.5 and Sample Diluent. The experiment was repeated with a new set of second antibodies starting from the baseline step. Each biosensor was used 6 times. The experiment was performed at 30° C. using a shaker speed of 1000 rpm. Data was analyzed using Data Analysis Software v9.0.0.12 (ForteBio). The Y-axis was aligned to the association step and Savitzky-Golay filtering was applied. The average buffer response was subtracted from the association response of the second antibody in order to correct for the dissociation of PDLoneECDHisCtag from the immobilized antibody. The corrected association responses were plotted in a matrix format.

[3] = biological target: T2, PDLoneECDHisCtag; assay: BLI cross-block, second antibody on PDLoneECDHisCtag held by immobilised 516; plain = non-blocking
Protocol: as §3

[4] = biological target: T3, cynomolgus PD-L1/137-H1 protein (Acro Biosystems, cat. No. PD1-052H4-100) (cynomolgus, UniProt G7PSE7 19-239); assay: BLI (Octet HTX), average of 3 experiments; antibody on AHC sensor, cynomolgus PD-L1 protein (Acro Biosystems) as analyte
T3 construct: also called cynomolgus PD-L1 (BLI)

[5] = biological target: T1, human PD-L1 (full length, on cells); assay: flow cytometry on PC3 cells, PE anti-human IgG secondary, MFI (PE)
Protocol: as §1, §2

[6] = biological target: T2, PDLoneECDHisCtag; assay: BLI cross-block, second antibody on PDLoneECDHisCtag held by immobilised 338; bold = blocking
Protocol: as §3

[7] = biological target: T3, cynomolgus PD-L1/137-H1 protein (Acro …); assay: BLI (Octet HTX), average of 3 experiments
Protocol: In a first set of experiments, affinities for recombinant-expressed human PD-L1 protein were determined using Bio-layer interferometry (BLI) on an Octet HTX instrument (ForteBio). Anti-Human IgG Fc Capture (AHC) biosensors (ForteBio) were loaded for 900 s with antibodies (1 μg/ml). […] The experiment was carried out while shaking at 1000 rpm at 30° C. Data was analyzed with Data Analysis Software v9.0.0.12 (ForteBio) using the 1:1 model and a global full fit with 1000 s association time and 200 or 1000 s dissociation time. Data traces were corrected by subtraction of a buffer reference, the Y-axis was aligned to the last 10 s of the baseline, and interstep correction as well as Savitzky-Golay filtering was applied. Data traces with a response <0.05 nm were excluded from analysis. As default, the fit using 1000 s dissociation time was used.
The experimental set-up was as described above, with the exception of [0466] Loading time of AHC biosensors with antibodies was 600 s; [0467] Baseline was 300 s; [0468]

[8] = biological target: T4, cynomolgus monkey PD-L1 (full length, on CHO cells) (cynomolgus monkey (Macaca fascicularis), UniProt G7PSE7 19-290); assay: flow cytometry on CHO cells transfected with cynomolgus PD-L1, PE anti-human IgG secondary, MFI (PE)
T4 construct: whole, on cells; also called PDL1 Mf; cynomolgus PD-L1
Protocol: as §1, §2
Binding to CHO cells expressing cynomolgus PD-L1 was determined by flow cytometry using a method as described above.

[9] = biological target: T5, human PD-L2 (full length, on CHO cells) (human, UniProt Q9BQ51 20-273); assay: flow cytometry on CHO cells expressing human PD-L2
T5 construct: whole, on cells; also called CHO-PD-L2 cells
T5 sequence (looked up): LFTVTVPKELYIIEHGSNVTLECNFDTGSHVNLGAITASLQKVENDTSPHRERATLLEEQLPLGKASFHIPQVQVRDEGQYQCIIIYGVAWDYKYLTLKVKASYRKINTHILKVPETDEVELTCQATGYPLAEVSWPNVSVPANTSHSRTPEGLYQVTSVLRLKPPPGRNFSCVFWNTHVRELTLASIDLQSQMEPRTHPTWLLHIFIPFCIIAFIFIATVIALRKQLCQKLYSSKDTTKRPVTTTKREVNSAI
Protocol: as §1, §2
A PE-conjugated PD-L2 specific antibody (Mylteni, clone MIH18; cat. no. 130-098-651) was used as positive control.

T1 sequence (Q9NZQ7 19-290 limits assumed): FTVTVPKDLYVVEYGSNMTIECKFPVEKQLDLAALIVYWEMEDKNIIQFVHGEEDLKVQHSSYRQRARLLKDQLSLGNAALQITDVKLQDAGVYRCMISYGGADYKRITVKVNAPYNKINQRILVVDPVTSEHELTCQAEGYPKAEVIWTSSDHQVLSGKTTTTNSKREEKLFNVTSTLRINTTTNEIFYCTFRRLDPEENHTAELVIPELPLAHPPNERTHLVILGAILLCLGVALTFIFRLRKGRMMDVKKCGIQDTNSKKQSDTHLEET
T4 sequence (G7PSE7 entry or part of it): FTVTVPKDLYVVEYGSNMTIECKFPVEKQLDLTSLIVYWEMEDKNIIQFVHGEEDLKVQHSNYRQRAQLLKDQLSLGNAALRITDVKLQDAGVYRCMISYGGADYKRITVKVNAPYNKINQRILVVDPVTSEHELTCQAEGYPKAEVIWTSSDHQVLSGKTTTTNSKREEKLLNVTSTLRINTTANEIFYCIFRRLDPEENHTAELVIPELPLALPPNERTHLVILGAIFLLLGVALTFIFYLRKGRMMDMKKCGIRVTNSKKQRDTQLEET
T2 sequence (Q9NZQ7 19-238, form in doubt): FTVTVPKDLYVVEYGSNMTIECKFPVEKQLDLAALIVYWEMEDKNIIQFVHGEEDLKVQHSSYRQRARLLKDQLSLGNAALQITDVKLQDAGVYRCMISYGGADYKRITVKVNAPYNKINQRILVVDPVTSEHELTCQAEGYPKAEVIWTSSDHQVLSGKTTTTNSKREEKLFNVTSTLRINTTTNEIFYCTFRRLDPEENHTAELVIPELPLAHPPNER
T3 sequence (G7PSE7 entry or part of it): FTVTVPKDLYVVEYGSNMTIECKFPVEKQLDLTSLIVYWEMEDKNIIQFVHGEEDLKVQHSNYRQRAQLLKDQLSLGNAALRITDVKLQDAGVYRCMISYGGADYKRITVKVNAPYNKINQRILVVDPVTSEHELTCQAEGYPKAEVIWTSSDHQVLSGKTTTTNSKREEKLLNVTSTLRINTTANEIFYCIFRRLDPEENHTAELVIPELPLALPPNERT

B1: IgG1-511-LC33S-FEAR (antibody, V domains shown)
VH: QVQLVQSGSELKKPGASVMVSCKASGYTFTSYVMNWVRQAPGQGLEWMGWINSYTGNPTSAQGFTGRFVFSFDTSVNTAYLQISSLKAEDTAVYYCARGYCTSTSCYLDYWGQGTLVTVSS
VL: SYELTQPPSVSVSPGHTARITCSGDALPKKYASWFQQKSGQAPVLVIYEDSKRPSGIPERFSGSTSGTMATLTISGAQVEDETDYYCYSADTSGTHRVFGGGTKLTVLG
EC50 (read off the curve) [1]: ~0.2 µg/mL
association response of the second antibody [2]: 0 nm
association response of the second antibody [3]: 1.1 nm
Kd [4]: 12 nM
koff [4]: 0.0052 s⁻¹
kon [4]: 450000 M⁻¹ s⁻¹
EC50 (read off the curve) [5]: ~0.01 µg/mL
association response of the second antibody [6]: 0 nm
Fold difference of KD (cynomolgus against human PD-L1) [7]: 2.3 fold
EC50 (read off the curve) [8]: ~0.02 µg/mL
binding result [9]: no binding

B2: IgG1-338-FEAR (antibody, V domains shown)
VH: EVQVVESGGGLVQPGGSLRLSCAASGFTFSRFWMSWVRQAPGKGLEWVANIKQDGGEKYYVDSVKGRFTISRDNAKNSLYLQMNSLRGEDTAVYYCARDDNWNGHFDYWGQGTLVTVSS
VL: DIQMTQSPSTLSASVGDRVTITCRASQSISSWLAWYQQKPGKAPNLLIYKASSLESGVPSRFSGSGSGTEFTLTISSLQPDDFATYYCQQYYGSYITFGQGTRLEIKR
EC50 (read off the curve) [1]: ~0.1 µg/mL
association response of the second antibody [2]: 0 nm
association response of the second antibody [3]: 1.1 nm
Kd [4]: 0.73 nM
koff [4]: 0.00028 s⁻¹
kon [4]: 390000 M⁻¹ s⁻¹
EC50 (read off the curve) [5]: ~0.03 µg/mL
association response of the second antibody [6]: 0 nm
Fold difference of KD (cynomolgus against human PD-L1) [7]: 2.3 fold
EC50 (read off the curve) [8]: ~0.01 µg/mL
binding result [9]: no binding

B3: IgG1-547-FEAR (antibody, V domains shown)
VH: EVQLLEPGGGLVQPGGSLRLSCEASGSTFSTYAMSWVRQAPGKGLEWVSGFSGSGGFTFYADSVRGRFTISRDSSKNTLFLQMSSLRAEDTAVYYCAIPARGYNYGSFQHWGQGTLVTVSS
VL: SYVLTQPPSVSVAPGQTARITCGGNNIGSKSVHWYQQKPGQAPVLVVYDDNDRPSGLPERFSGSNSGNTATLTISRVEAGDEADYYCQVWDSSSDHVVFGGGTKLTVLG
EC50 (read off the curve) [1]: ~0.2 µg/mL
association response of the second antibody [2]: 0 nm
association response of the second antibody [3]: 0.8 nm
Kd [4]: 0.27 nM
koff [4]: 0.00012 s⁻¹
kon [4]: 440000 M⁻¹ s⁻¹
EC50 (read off the curve) [5]: ~0.04 µg/mL
association response of the second antibody [6]: 0 nm
Fold difference of KD (cynomolgus against human PD-L1) [7]: 2.3 fold
EC50 (read off the curve) [8]: ~0.02 µg/mL
binding result [9]: no binding
